Biological target: human EGFR tagged with the fluorescent protein mTurquoise at the C-terminus (wild-type), in plasma … (human, UniProt P00533 25-1210)
Test: cell-based or functional assay

EC50 of Y1068 phosphorylation per EGFR molecule: 5.5 nM | EC50 of Y1173 phosphorylation per EGFR molecule: 6.8 nM
B1: EGF ligand from mouse labeled with rhodamine at its N-terminus (rho-mEGF, Thermofisher, E3481) (ligand, UniProt P01132 977-1029, looked up)
chain: NSYPGCPSSYDGYCLNGGVCMHIESLDSYTCNCVIGYSGDRCQTRDLRWWELR
modifications: not fully specified; rhodamine (tetramethylrhodamine) at the N-terminus
